# Measured values: article PMC13311836, “Clinically observed RASA1 missense mutants exhibit diverse RasGAP protein behaviors in vitro” (The Journal of Biological Chemistry, 2026)
# [ ]: non-standard residue; d: D form. pY = N[C@@H](Cc1ccc(OP(=O)(O)O)cc1)C(=O)O
# T1: RasGAP SH2-SH3-SH2 construct (residues 174 to 444), R427Q (human, UniProt P20936 174-444, C236S | C261S | C372S | C402S | R427Q)
# T1 sequence: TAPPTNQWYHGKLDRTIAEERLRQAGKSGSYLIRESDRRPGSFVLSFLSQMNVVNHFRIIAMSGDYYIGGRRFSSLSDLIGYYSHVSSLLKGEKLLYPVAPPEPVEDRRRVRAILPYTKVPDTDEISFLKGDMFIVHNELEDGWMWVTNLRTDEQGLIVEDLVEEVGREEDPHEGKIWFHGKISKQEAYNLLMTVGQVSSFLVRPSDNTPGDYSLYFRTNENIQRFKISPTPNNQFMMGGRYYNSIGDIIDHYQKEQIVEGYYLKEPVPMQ
# T2: RasGAP SH2-SH3-SH2 construct (residues 174 to 444), WT (human, UniProt P20936 174-444, C236S | C261S | C372S | C402S)
# T2 sequence: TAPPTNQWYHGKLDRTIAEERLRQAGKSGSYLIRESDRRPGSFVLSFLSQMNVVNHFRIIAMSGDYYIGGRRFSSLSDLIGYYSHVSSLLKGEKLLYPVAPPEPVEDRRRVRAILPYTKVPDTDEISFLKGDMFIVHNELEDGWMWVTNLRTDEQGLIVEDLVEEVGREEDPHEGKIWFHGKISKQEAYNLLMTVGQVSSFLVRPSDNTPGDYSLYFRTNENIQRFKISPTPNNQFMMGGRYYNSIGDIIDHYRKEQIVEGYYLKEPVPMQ
# T3: RasGAP SH2-SH3-SH2 construct (residues 174 to 444), R194C (human, UniProt P20936 174-444, R194C | C236S | C261S | C372S | C402S)
# T3 sequence: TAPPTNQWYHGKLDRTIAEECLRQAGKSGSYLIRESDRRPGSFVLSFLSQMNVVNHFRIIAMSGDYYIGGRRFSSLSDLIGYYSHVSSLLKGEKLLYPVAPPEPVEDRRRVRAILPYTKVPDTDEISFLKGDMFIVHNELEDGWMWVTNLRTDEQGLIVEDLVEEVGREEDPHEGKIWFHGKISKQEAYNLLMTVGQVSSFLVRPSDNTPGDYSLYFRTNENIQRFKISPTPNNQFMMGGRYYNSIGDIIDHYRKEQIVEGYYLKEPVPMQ
# T4: RasGAP SH2-SH3-SH2 construct (residues 174 to 444), R427Q (human, UniProt P20936 174-444, C236S | C261S | C372S | C402S | R427Q)
# T4 construct: human RasGAP (p120RasGAP, RASA1), UniProt P20936, residues 174-444, with C236S, C261S, C372S, C402S and the cancer-associated C-SH2 mutation R427Q; also called p120RasGAP SH2-SH3-SH2 R427Q; source: E. coli Rosetta (DE3), purified (Ni-NTA, TEV cleavage, anion exchange, SEC); not shown: His6, N-terminal, cleaved
# T4 sequence (looked up): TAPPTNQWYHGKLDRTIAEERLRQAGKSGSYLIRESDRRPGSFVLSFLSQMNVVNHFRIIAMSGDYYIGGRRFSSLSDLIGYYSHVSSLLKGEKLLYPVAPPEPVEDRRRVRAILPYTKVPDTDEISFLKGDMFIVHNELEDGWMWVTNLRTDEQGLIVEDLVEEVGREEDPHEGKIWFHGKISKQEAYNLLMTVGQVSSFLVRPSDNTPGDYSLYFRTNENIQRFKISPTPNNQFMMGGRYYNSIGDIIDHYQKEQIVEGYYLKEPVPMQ
# T5: RasGAP SH2-SH3-SH2 construct (residues 174 to 444), WT (human, UniProt P20936 174-444, C236S | C261S | C372S | C402S)
# T5 construct: also called p120RasGAP SH2-SH3-SH2; RASA1; source: E. coli Rosetta (DE3), purified (Ni-NTA, TEV cleavage, anion exchange, SEC); not shown: His6, N-terminal, cleaved
# T5 sequence (looked up): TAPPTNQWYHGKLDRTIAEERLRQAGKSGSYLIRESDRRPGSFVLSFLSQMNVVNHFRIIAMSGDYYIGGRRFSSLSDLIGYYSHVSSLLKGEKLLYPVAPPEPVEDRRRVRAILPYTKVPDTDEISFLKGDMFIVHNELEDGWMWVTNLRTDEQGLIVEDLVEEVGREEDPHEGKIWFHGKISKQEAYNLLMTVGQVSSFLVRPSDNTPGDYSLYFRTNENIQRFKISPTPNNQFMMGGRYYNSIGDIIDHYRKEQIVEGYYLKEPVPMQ
# T6: RasGAP SH2-SH3-SH2 construct (residues 174 to 444), R194C (human, UniProt P20936 174-444, R194C | C236S | C261S | C372S | C402S)
# T6 construct: human RasGAP (p120RasGAP, RASA1), UniProt P20936, residues 174-444, with C236S, C261S, C372S, C402S and the cancer-associated N-SH2 mutation R194C; also called p120RasGAP SH2-SH3-SH2 R194C; source: E. coli Rosetta (DE3), purified (Ni-NTA, TEV cleavage, anion exchange, SEC); not shown: His6, N-terminal, cleaved
# T6 sequence (looked up): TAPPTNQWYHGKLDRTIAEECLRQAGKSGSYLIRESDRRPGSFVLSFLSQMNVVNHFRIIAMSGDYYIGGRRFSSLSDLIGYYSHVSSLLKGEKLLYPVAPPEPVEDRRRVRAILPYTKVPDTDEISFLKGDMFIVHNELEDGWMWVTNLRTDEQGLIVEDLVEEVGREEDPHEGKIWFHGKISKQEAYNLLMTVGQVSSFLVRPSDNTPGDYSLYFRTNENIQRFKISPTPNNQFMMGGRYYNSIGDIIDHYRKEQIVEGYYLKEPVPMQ
# How the values were obtained:
# [1] = target: T1, RasGAP SH2-SH3-SH2 construct (residues …); assay: ITC; replicate, Figure S7 panel F
# [2] = target: T1, RasGAP SH2-SH3-SH2 construct (residues …); assay: ITC; average
# [3] = target: T2, RasGAP SH2-SH3-SH2 construct (residues …); assay: ITC; average
# [4] = target: T3, RasGAP SH2-SH3-SH2 construct (residues …); assay: ITC; average
# [5] = target: T3, RasGAP SH2-SH3-SH2 construct (residues …); assay: ITC; replicate, Figure S7 panel D
# [6] = target: T2, RasGAP SH2-SH3-SH2 construct (residues …); assay: ITC; replicate, Figure S7 panel B
# [7] = target: T4, RasGAP SH2-SH3-SH2 construct (residues …); assay: ITC; about 25 μM peptide in the syringe titrated into about 5 μM RasGAP SH2-SH3-SH2 in the cell; 25 °C; 250 mM NaCl, 20 mM Tris pH 8, 1 mM TCEP; Independent model; details: both partners purified
# [8] = target: T5, RasGAP SH2-SH3-SH2 construct (residues …); assay: as above; details: both partners purified
# [9] = target: T6, RasGAP SH2-SH3-SH2 construct (residues …); assay: as above; details: both partners purified
# [10] = target: T3, RasGAP SH2-SH3-SH2 construct (residues …); assay: ITC; replicate, Figure S7 panel E
# [11] = target: T2, RasGAP SH2-SH3-SH2 construct (residues …); assay: ITC; replicate, Figure S7 panel A
# [12] = target: T1, RasGAP SH2-SH3-SH2 construct (residues …); assay: ITC; replicate, Figure S7 panel G
# [13] = target: T3, RasGAP SH2-SH3-SH2 construct (residues …); assay: ITC; replicate, Figure S7 panel C
binder,measurement,setting,value
"Ac-DPSD[pY]AEPMDAVVKPRNEEENI[pY]SVPHDS-NH2 (p190RhoGAP (ARHGAP35), UniProt Q9NRY4, residues 1083-1111, 29 amino acids; also called p190RhoGAP peptide; ARHGAP35 peptide; source: synthetic peptide, bought: GenScript) [p190RhoGAP phosphopeptide, residues 1083 to 1111 (pY1087, pY1105)]",Kd,[1],8.14 nM
same,Kd,[2],5.11 nM
same,Kd,[3],5.04 nM
same,Kd,[4],4.03 nM
same,Kd,[5],7.23 nM
same,Kd,[6],3.59 nM
same,binding result,[7],binds
same,binding result,[8],binds
same,binding result,[9],binds
same,Kd,[10],1.2 nM
same,Kd,[11],6.49 nM
same,Kd,[12],2.08 nM
same,Kd,[13],3.65 nM
